In publication PMC6349032:

Biological target: GD-FXaS195A (Gla-domainless factor Xa, catalytically inactive) (UniProt P00742;P00742 85-179;235-488, S419A)
Experiment: X-ray crystallography

Sequence of GD-FXaS195A (Gla-domainless factor Xa, catalytically inactive) (P00742 85-179, chain 1 of 2): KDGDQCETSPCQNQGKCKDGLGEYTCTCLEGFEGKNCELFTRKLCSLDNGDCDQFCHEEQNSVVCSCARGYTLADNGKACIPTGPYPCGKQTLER
Sequence of GD-FXaS195A (Gla-domainless factor Xa, catalytically inactive) (P00742 235-488 S419A, chain 2 of 2): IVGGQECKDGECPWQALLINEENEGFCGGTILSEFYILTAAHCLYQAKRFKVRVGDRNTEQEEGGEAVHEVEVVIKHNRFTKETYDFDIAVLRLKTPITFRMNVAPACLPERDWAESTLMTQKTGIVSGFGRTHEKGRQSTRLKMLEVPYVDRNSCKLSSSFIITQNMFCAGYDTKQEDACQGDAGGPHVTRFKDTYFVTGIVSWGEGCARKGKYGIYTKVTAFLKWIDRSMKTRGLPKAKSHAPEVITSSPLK

GAGAGCCCCAGCGAGAUAAUACUUGGCCCCGCUCUU (structured_RNA, all C are 2'-fluoro-C and all U are 2'-fluoro-U; purines A/G as ribonucleotides) [11F7t]
binding result: binds
